# Where no end group is shown, it is not given here.
# Assay: First-order nonenzymatic deamidation of pentapeptides in Tris buffer
# Format: physicochemical
# Conditions: pH 7.4, 37.0° C., 0.15 M Tris HCl; Asn pentapeptides
# Method in brief: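 First-order deamidation rates determined for XxxAsnYyy and XxxGlnYyy pentapeptides in 0.15 M Tris buffer, pH 7.4, 37° C. Not all values were measured directly: several Asn rates were estimated and most Gln rates came from surface fitting.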
row,Substance,First-Order Deamidation Halftimes of GlyXxxAsnYyyGly
1,GlyLysAsnProGly (GKNPG; printed: GlyLysAsnProGly),4940 days
2,GlyHisAsnCysGly (GHNCG; printed: GlyHisAsnCysGly),43.9 days
3,GlyArgAsnTyrGly (GRNYG; printed: GlyArgAsnTyrGly),90.0 days
4,GlyTrpAsnLysGly (GWNKG; printed: GlyTrpAsnLysGly),59.4 days
5,GlySerAsnSerGly (GSNSG; printed: GlySerAsnSerGly),15.1 days
6,GlyAmCysAsnGluGly (CNEG; not fully specified (N-terminus); printed as GlyAmCysAsnGluGly),45 days
7,GlyTrpAsnAlaGly (GWNAG; printed: GlyTrpAsnAlaGly),30.7 days
8,GlyAlaAsnValGly (GANVG; printed: GlyAlaAsnValGly),254 days
9,GlyLysAsnLeuGly (GKNLG; printed: GlyLysAsnLeuGly),119 days
10,GlySerAsnPheGly (GSNFG; printed: GlySerAsnPheGly),52.2 days
11,GlyMetAsnLeuGly (GMNLG; printed: GlyMetAsnLeuGly),113 days
12,GlyGluAsnLeuGly (GENLG; printed: GlyGluAsnLeuGly),130 days
13,GlyHisAsnTrpGly (GHNWG; printed: GlyHisAsnTrpGly),95.4 days

# Same assay, conditions: pH 7.4, 37.0 ° C., 0.15 M Tris HCl; Gln pentapeptides; 52 values measured, rest derived from surface fitting
row,Substance,First-Order Deamidation Halftimes of GlyXxxGlnYyyGly
1,GlyLysGlnPheGly (GKQFG; printed: GlyLysGlnPheGly),7000 days
2,GlySerGlnPheGly (GSQFG; printed: GlySerGlnPheGly),8300 days
3,GlyAlaGlnLeuGly (GAQLG; printed: GlyAlaGlnLeuGly),6100 days
4,GlyIleGlnThrGly (GIQTG; printed: GlyIleGlnThrGly),5300 days
5,GlyLysGlnGlyGly (GKQGG; printed: GlyLysGlnGlyGly),650 days
6,GlyValGlnThrGly (GVQTG; printed: GlyValGlnThrGly),4300 days
7,GlyValGlnValGly (GVQVG; printed: GlyValGlnValGly),5900 days
8,GlyTrpGlnCysGly (GWQCG; printed: GlyTrpGlnCysGly),2300 days
9,GlyGlyGlnLeuGly (GGQLG; printed: GlyGlyGlnLeuGly),6200 days
10,GlyAlaGlnProGly (GAQPG; printed: GlyAlaGlnProGly),9300 days
11,GlyCysGlnThrGly (GCQTG; printed: GlyCysGlnThrGly),3500 days
12,GlyGlyGlnSerGly (GGQSG; printed: GlyGlyGlnSerGly),5700 days
13,GlyAspGlnGluGly (GDQEG; printed: GlyAspGlnGluGly),8200 days
14,GlyProGlnThrGly (GPQTG; printed: GlyProGlnThrGly),4600 days
15,GlyPheGlnLeuGly (GFQLG; printed: GlyPheGlnLeuGly),6400 days
16,GlyHisGlnAspGly (GHQDG; printed: GlyHisGlnAspGly),5600 days
